Test results reported in PMC5447677, “Pathogenic Leptospira Secreted Proteases Target the Membrane Attack Complex: A Potential Role for Thermolysin in Complement Inhibition” (Frontiers in Microbiology, 2017).

Assays:
Assay in all cases: ELISA; thermolysin coated on microtiter plates (100 ul; 10 ug/ml, 16 h, 4 C), blocked with 3% BSA in PBS; C6, C7, C8 or C9 added (100 ul; 0-5 ug/ml) for 1 h at 37 C; detected with goat polyclonal antibodies, absorbance at 492 nm; Kd by non-linear regression Y = Bmax*X/(Kd + X); for C6 also with a fixed amount (1 ug) in 0-600 mM NaCl (reduced only at 600 mM) or 0.05-1 ug heparin (dose-dependent inhibition)
Conditions in all cases: both partners purified
[1] = target: T1, Complement component C8, purified from human plasma (human, UniProt P07357 31-584; P07358 55-591; P07360 21-202)
T1 construct: human complement component C8 alpha chain (~64 kDa), purified from plasma as intact C8; human complement component C8 beta chain (~64 kDa), purified from plasma as intact C8; human complement component C8 gamma chain (~22 kDa), purified from plasma as intact C8; Intact C8 of three polypeptide chains (alpha, beta, gamma); source: bought: Complement Technology (purified from human plasma); copies: …

[2] = target: T2, Complement component C7, purified from human plasma (human, UniProt P10643 23-843)
T2 construct: human complement component C7, 95 kDa single chain, purified from plasma; source: bought: Complement Technology (purified from human plasma)

[3] = target: T3, Complement component C9, purified from human plasma (human, UniProt P02748 22-559)
T3 construct: human complement component C9, single 71 kDa polypeptide chain, purified from plasma; source: bought: Complement Technology (purified from human plasma)

[4] = target: T4, Complement component C6, purified from human plasma (human, UniProt P13671 22-934)
T4 construct: human complement component C6, single polypeptide chain (~100 kDa), purified from plasma; source: bought: Complement Technology (purified from human plasma)
T4 sequence (P13671 22-934): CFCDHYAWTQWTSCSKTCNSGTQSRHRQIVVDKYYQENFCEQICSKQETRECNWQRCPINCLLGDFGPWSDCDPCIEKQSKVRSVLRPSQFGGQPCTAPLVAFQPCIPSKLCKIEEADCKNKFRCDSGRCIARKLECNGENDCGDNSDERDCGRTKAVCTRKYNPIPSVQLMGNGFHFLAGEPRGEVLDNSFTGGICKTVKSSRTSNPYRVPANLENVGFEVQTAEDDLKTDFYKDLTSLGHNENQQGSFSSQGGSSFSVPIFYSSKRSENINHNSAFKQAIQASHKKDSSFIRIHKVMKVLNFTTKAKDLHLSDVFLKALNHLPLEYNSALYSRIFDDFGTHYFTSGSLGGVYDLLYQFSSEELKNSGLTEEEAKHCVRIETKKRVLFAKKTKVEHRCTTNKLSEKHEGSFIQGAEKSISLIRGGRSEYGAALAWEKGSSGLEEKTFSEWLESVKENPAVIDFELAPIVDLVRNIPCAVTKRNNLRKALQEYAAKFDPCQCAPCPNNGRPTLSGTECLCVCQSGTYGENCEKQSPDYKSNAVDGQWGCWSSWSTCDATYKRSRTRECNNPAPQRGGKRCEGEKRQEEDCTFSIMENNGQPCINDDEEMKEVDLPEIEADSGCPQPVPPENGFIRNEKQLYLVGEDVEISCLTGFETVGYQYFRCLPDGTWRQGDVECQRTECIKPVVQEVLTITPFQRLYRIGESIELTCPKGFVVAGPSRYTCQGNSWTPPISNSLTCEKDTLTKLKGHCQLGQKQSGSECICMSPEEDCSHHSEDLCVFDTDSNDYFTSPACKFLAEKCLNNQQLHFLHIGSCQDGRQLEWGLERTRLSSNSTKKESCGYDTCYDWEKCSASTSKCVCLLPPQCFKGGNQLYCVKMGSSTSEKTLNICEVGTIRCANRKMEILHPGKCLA

T3 sequence (P02748 22-559): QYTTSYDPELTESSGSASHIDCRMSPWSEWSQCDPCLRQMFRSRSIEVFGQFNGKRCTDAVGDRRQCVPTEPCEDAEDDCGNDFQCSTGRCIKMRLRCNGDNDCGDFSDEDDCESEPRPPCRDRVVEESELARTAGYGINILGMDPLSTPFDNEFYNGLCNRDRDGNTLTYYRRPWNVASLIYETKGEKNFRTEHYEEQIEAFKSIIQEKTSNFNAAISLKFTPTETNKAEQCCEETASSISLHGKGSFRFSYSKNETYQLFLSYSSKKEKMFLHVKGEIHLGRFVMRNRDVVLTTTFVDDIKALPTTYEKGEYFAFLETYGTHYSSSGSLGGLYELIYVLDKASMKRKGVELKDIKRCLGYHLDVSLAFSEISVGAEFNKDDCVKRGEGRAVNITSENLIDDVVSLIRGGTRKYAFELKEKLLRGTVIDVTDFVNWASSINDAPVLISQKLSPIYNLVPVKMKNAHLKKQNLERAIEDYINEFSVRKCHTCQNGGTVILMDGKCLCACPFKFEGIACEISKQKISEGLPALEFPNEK
T1 sequence (P07357 31-584, chain 1 of 3): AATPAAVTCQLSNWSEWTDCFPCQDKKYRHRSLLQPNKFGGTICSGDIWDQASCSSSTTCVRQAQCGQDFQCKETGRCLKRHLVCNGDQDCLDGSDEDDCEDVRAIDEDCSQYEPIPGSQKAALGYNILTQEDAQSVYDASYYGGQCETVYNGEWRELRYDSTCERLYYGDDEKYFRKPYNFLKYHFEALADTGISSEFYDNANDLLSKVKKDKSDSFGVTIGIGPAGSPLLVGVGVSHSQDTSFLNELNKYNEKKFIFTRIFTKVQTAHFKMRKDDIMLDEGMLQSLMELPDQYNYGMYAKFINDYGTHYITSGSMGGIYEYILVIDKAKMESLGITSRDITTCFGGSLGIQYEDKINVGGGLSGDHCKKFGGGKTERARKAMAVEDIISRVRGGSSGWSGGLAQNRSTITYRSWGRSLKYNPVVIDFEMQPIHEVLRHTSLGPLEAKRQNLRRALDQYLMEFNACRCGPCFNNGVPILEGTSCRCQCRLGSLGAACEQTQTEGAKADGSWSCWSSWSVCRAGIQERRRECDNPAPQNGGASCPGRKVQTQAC
T1 sequence (P07358 55-591, chain 2 of 3): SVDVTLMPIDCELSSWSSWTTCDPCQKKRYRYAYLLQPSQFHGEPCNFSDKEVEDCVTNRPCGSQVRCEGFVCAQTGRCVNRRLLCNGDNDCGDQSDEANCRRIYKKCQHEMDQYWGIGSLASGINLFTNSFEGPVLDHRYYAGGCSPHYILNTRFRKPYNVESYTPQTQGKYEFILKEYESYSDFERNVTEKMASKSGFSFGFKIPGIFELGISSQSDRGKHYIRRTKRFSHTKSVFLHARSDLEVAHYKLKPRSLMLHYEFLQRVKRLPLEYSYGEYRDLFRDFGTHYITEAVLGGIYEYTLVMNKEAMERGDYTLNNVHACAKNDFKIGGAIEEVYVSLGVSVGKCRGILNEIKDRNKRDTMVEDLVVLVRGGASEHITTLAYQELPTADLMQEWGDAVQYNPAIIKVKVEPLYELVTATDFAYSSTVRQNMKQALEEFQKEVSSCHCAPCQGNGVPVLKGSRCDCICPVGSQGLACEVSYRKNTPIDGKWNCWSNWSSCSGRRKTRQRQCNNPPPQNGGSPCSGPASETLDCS
T1 sequence (P07360 21-202, chain 3 of 3): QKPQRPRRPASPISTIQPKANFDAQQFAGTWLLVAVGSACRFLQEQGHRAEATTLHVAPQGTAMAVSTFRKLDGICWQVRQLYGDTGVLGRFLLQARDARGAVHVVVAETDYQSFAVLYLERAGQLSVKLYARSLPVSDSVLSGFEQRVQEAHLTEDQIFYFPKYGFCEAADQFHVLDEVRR
T2 sequence (P10643 23-843): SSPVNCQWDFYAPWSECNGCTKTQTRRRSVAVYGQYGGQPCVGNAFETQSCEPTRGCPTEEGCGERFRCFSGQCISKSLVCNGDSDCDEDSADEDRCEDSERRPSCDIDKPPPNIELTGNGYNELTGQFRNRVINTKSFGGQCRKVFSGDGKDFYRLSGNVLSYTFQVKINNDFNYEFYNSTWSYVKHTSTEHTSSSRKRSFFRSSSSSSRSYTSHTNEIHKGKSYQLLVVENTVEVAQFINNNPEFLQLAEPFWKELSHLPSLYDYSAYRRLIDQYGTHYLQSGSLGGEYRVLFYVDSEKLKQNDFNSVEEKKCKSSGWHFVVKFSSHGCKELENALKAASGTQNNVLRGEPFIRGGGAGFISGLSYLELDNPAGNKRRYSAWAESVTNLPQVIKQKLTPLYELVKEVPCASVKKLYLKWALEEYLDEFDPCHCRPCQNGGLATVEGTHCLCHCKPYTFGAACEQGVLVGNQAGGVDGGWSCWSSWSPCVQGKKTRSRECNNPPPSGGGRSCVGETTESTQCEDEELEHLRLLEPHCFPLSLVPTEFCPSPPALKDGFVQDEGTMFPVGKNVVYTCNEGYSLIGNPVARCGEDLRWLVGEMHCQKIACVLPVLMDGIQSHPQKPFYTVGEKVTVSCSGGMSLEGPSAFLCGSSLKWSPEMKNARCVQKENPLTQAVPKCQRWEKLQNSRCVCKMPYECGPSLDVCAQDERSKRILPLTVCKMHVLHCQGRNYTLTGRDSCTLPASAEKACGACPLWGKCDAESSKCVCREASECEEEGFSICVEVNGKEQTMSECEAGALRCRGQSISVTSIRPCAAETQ

B1: recombinant thermolysin (LIC13322), PepSY-M4 fragment (domain or fragment)
chain: EFYQVPENFNSSPKLSESEALSKTLKHIGAKKYIWESVEREAALKRKKNDPNASYFPKGELLVYEHSLGKSNTKKEFRLAYKFGIASIDPPISRYVYVDSNSGEILSSKDARRYEGVQFPSPKPPIEIDIDYSRCIIDKEYCIEQGTAMTRFSGLQSITTWTAGKTNHFELKDNSRGGGIYTYSWEFVKDPLEDIQLLNIPMIDTNNSWSQSEYHDNYNHDALLDAHWGIEMTYDYFKSIHNRLSYDGDNSRIFNNVHYFNAFVANNAYWDPVTEEIYYVYCPHKNSICKGFNLPILLDPKYEDFTSLDIVSHEFGHGINGDLAGFNLDMEPGALDEGFSDIWNVGVNNYVNKVLGMQKNIWLVGDETVPGGGMRSVSNPKSTTVMSPGPNTYHGDLWDFEDNEAHTNSLVLSHWFYTLSKGKQGFNDYECTYNVSGIGIEKAERIAYVALLFLSSTSGYTSARTYAIIAAKLLYGLFSSEVKSTIDAWDAVAVPAETTSRGGQGMVRPRHYIASVKLSNVTNDSGNDCGYKDNSYLLPTVLRGVTYNMVLLSQGSASNPSKVHKWRVWIDFNQNGSFESSEMVVQDTVNSSFGGTLQKSIKIPTNALTGYAKMRVSMKAAQSGEAYQGSSESFVEGEVEDYIVSILDFSL
B1 was tested, and the Kd [1] was 0.062 ± 0.0071 µM, the Kd [2] was 0.0178 ± 0.0013 µM and the Kd [3] was 0.0568 ± 0.0052 µM. It also gave a Kd [4] of 0.0318 ± 0.0022 µM.
